Measurements reported in US20150376265A1 (Genentech, published 2015).

Key:
[1] = target: T1, Complex I with gH W168C, on virions of HB1 - mutant viruses 2 and 5 (HCMV, UniProt P12824 24-743; P16832 31-278; P16837 28-171; F5HCP3 26-214; F5HET4 19-129); test: cell-based or functional assay
T1 chain 1: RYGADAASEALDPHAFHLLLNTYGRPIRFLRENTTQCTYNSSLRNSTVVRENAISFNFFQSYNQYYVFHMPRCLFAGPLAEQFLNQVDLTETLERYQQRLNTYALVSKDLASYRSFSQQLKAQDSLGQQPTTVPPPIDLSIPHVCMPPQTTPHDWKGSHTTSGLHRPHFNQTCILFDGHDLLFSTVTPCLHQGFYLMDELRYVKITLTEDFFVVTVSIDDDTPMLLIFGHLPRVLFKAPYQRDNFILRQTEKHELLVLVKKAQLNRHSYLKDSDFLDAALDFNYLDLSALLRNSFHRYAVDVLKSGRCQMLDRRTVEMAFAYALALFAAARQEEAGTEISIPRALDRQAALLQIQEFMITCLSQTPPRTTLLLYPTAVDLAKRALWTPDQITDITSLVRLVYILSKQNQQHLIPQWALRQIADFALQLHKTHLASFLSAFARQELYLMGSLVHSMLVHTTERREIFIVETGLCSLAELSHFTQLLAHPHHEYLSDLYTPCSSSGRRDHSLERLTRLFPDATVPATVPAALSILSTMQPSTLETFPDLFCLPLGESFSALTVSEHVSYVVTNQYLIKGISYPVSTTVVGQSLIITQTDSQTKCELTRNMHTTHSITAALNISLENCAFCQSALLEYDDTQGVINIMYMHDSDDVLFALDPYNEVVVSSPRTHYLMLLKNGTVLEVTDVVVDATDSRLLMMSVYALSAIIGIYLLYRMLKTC
T1 chain 2: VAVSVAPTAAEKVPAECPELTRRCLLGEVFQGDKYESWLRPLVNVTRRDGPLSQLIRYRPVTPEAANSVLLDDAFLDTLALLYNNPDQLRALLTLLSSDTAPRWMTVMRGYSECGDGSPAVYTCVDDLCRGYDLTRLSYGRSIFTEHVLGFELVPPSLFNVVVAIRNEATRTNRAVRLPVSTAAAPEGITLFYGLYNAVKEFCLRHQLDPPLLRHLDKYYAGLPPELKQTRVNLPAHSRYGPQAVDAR
T1 chain 3: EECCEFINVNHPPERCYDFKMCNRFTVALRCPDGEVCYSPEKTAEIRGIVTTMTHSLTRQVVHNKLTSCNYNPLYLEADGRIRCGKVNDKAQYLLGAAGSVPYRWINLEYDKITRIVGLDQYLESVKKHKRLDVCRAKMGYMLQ
T1 chain 4: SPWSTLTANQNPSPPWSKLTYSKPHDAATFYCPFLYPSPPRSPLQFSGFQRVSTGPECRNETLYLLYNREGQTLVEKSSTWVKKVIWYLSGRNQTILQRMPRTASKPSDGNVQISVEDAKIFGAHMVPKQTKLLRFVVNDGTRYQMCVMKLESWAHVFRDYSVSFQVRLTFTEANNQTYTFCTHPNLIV
T1 chain 5: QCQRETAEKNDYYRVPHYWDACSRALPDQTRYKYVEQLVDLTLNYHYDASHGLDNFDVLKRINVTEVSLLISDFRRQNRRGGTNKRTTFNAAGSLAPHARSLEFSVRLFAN

[2] = target: T2, Complex I with gH W168R, on virions of HB1 - mutant virus 6 (HCMV, UniProt P12824 24-743; P16832 31-278; P16837 28-171; F5HCP3 26-214; F5HET4 19-129); test: cell-based or functional assay
T2 chain 1: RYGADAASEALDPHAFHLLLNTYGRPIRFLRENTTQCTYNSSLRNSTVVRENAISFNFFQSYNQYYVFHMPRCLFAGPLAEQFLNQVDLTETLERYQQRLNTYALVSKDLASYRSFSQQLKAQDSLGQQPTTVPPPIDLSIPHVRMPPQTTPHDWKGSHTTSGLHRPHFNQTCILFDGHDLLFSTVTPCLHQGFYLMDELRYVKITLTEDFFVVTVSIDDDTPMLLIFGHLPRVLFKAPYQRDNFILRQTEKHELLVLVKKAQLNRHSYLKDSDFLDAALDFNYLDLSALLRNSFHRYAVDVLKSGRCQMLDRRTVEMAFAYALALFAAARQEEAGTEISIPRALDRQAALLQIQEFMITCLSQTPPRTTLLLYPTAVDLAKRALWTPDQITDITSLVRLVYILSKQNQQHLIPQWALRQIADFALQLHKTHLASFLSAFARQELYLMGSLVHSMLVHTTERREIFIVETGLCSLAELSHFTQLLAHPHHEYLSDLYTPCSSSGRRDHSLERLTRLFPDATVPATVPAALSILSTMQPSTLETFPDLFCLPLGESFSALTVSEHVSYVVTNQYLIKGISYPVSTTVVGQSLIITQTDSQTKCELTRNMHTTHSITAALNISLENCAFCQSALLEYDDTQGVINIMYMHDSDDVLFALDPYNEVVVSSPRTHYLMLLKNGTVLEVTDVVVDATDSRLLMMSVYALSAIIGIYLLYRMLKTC
T2 chain 2: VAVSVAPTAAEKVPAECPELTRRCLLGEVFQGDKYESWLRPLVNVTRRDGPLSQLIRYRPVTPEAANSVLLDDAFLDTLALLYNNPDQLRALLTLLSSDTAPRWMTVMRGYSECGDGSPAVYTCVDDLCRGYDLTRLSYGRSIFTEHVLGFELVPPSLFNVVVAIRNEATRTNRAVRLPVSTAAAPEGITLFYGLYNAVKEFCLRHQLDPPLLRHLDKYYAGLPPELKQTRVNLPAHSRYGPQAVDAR
T2 chain 3: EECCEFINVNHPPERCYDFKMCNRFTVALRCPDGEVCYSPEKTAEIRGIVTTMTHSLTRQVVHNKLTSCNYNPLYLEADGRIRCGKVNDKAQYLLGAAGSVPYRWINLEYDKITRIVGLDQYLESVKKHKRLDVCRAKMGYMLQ
T2 chain 4: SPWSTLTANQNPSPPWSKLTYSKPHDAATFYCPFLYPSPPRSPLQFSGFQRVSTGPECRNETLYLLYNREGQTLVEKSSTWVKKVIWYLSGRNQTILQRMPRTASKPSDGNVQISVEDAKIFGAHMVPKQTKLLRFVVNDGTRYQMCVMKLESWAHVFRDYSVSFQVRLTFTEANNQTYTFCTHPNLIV
T2 chain 5: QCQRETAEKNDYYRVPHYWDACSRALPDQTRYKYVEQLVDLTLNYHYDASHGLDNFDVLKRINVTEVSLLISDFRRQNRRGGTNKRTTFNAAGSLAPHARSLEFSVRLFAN

[3] = target: T3, gH/gL, full-length, on the surface of transfected HEK-293T cells (HCMV, UniProt P12824 24-743; P16832 31-278); test: FACS on transfected HEK-293T cells
T3 construct: also called cells expressing gH/gL alone; cell-surface expressed gH/gL

[4] = target: T4, gH/gL/gO on the surface of cells (HCMV, UniProt P12824 24-743; P16832 31-278; F5HGP1 32-472); test: FACS on transfected cells, data not shown
T4 construct: also called Complex II; cells expressing gH/gL/gO
T4 sequence (F5HGP1 32-472 limits assumed, one chain of several): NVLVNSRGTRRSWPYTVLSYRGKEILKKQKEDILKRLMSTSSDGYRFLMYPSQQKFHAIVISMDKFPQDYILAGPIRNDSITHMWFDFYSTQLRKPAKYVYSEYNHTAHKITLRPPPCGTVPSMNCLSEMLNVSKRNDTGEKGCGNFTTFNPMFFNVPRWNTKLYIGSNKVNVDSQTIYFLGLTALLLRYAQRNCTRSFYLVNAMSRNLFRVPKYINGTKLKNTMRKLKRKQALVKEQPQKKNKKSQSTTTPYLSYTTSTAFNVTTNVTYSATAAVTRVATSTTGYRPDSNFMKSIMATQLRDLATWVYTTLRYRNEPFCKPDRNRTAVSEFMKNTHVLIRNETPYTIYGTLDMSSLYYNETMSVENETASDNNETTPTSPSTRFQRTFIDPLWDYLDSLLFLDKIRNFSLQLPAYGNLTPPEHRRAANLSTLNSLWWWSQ

B1: hu8G8 (lambda4 8G8 graft and hu8G8.VH1) (antibody, V domains shown)
VH: EVQLVQSGAEVKKPGASVKVSCKASGYTFTNYGMNWVRQAPGQGLEWIGWINTYTGEPTYADDFKGRVTITRDTSTSTAYLELSSLRSEDTAVYYCARSWYYVSNYWYFDVWGQGTLVTVSS
VL: SVLTQSPSASASLGASVKLTCTLSSQHSTYTIEWYQQQPGKGPRYLMKLKKDGSHSTGDGIPDRFSGSSSGADRYLTISNLQSEDEADYYCGVGDTIKEQFVYVFGGGTKLTVLG
notes: also called hu8G8 with VH1; Humanized 8G8 with VH1
B1 was tested, and the “hu8G8 EC50, neutralisation of HB1 - mutant virus 2, Data Set 1” value [1] was 8 ng/mL, the “hu8G8 EC50, neutralisation of HB1 - mutant virus 2, Data Set 2” value [1] was 6 ng/mL and the “hu8G8 EC50, neutralisation of HB1 - mutant virus 5, Data Set 2” value [1] was 1 ng/mL. For the same binder, the “hu8G8 EC50, neutralisation of HB1 - mutant virus 6, Data Set 2” value [2] was 1 ng/mL, the binding result [3] was “no binding (tested: saturating primary antibody)” and the binding result [4] was “no binding”.
